Measured values published in the supplement of paper PMC9112550, “Optimization of the antimicrobial peptide Bac7 by deep mutational scanning” (BMC Biology, 2022).

Test system: Escherichia coli TOP10
Test: shrunken log2 fold change of peptide-encoding DNA abundance (4.5 h post-induction vs induction); higher = less antimicrobial activity (less host growth inhibition)
Conditions: time post-induction: 4.5 h; library: site-saturation at positions 5, 18, 19, 20
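Note: peptides expressed intracellularly from a pBAD plasmid library in pooled LB shake-flask culture, induced with 0.3% L-arabinose, DNA abundance read by NGS, three biological replicates, DESeq2 with apeglm shrinkage.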

| Sequence | shrunken log2 fold change |
| --- | --- |
| RRIRFRPPRLPRPRPRPQAGPRP | -0.0266 |
| RRIRFRPPRLPRPRPRPQCNPRP | -0.531 |
| RRIRFRPPRLPRPRPRPQCRPRP | -0.218 |
| RRIRFRPPRLPRPRPRPQDGPRP | 0.0293 |
| RRIRFRPPRLPRPRPRPQEEPRP | -0.0228 |
| RRIRFRPPRLPRPRPRPQEKPRP | -0.0525 |
| RRIRFRPPRLPRPRPRPQEMPRP | 0.126 |
| RRIRFRPPRLPRPRPRPQEYPRP | -0.541 |
| RRIRFRPPRLPRPRPRPQFIPRP | -0.141 |
| RRIRFRPPRLPRPRPRPQGGPRP | 0.0852 |
| RRIRFRPPRLPRPRPRPQISPRP | -0.217 |
| RRIRFRPPRLPRPRPRPQPAPRP | 0.652 |
| RRIRFRPPRLPRPRPRPQPTPRP | 0.597 |
| RRIRFRPPRLPRPRPRPQQIPRP | -0.54 |
| RRIRFRPPRLPRPRPRPQRPPRP | 0.203 |
| RRIRFRPPRLPRPRPRPQRQPRP | -0.064 |
| RRIRFRPPRLPRPRPRPQRSPRP | -0.105 |
| RRIRFRPPRLPRPRPRPQRYPRP | -0.139 |
| RRIRFRPPRLPRPRPRPQSGPRP | -0.036 |
| RRIRFRPPRLPRPRPRPQSPPRP | -0.13 |
| RRIRFRPPRLPRPRPRPQSQPRP | 0.0846 |
| RRIRFRPPRLPRPRPRPQTVPRP | -0.211 |
| RRIRFRPPRLPRPRPRPQVYPRP | -0.167 |
| RRIRFRPPRLPRPRPRPQWLPRP | -0.0613 |
| RRIRFRPPRLPRPRPRPQYMPRP | -1.77 |

| Sequence | shrunken log2 fold change |
| --- | --- |
| RRIRFRPPRLPRPRPRPRATPRP | 0.691 |
| RRIRFRPPRLPRPRPRPRCIPRP | -0.606 |
| RRIRFRPPRLPRPRPRPRCKPRP | 0.0452 |
| RRIRFRPPRLPRPRPRPRDWPRP | 0.308 |
| RRIRFRPPRLPRPRPRPRGAPRP | 0.493 |
| RRIRFRPPRLPRPRPRPRGLPRP | -0.0929 |
| RRIRFRPPRLPRPRPRPRHIPRP | -0.439 |
| RRIRFRPPRLPRPRPRPRHKPRP | 0.202 |
| RRIRFRPPRLPRPRPRPRIWPRP | 0.051 |
| RRIRFRPPRLPRPRPRPRKNPRP | 0.266 |
| RRIRFRPPRLPRPRPRPRMNPRP | -0.173 |
| RRIRFRPPRLPRPRPRPRNCPRP | -0.132 |
| RRIRFRPPRLPRPRPRPRPGPRP | 0.837 |
| RRIRFRPPRLPRPRPRPRRIPRP | -0.116 |
| RRIRFRPPRLPRPRPRPRRQPRP | 0.108 |
| RRIRFRPPRLPRPRPRPRRVPRP | 0.258 |
| RRIRFRPPRLPRPRPRPRSSPRP | 0.12 |
| RRIRFRPPRLPRPRPRPRSTPRP | 0.421 |
| RRIRFRPPRLPRPRPRPRTMPRP | 0.0577 |
| RRIRFRPPRLPRPRPRPRVMPRP | 0.138 |
| RRIRFRPPRLPRPRPRPRWFPRP | -0.111 |
| RRIRFRPPRLPRPRPRPRWPPRP | 0.327 |
| RRIRFRPPRLPRPRPRPRYMPRP | -0.689 |
| RRIRFRPPRLPRPRPRPSAKPRP | 0.319 |
| RRIRFRPPRLPRPRPRPSASPRP | 0.0552 |

| Sequence | shrunken log2 fold change |
| --- | --- |
| RRIRFRPPRLPRPRPRPSFWPRP | -0.0521 |
| RRIRFRPPRLPRPRPRPSGGPRP | -0.103 |
| RRIRFRPPRLPRPRPRPSGLPRP | -0.237 |
| RRIRFRPPRLPRPRPRPSHTPRP | -0.035 |
| RRIRFRPPRLPRPRPRPSKKPRP | 0.0524 |
| RRIRFRPPRLPRPRPRPSNDPRP | -0.112 |
| RRIRFRPPRLPRPRPRPSNMPRP | -0.935 |
| RRIRFRPPRLPRPRPRPSPWPRP | 1.82 |
| RRIRFRPPRLPRPRPRPSREPRP | 1.17 |
| RRIRFRPPRLPRPRPRPSRGPRP | 0.485 |
| RRIRFRPPRLPRPRPRPSTFPRP | -0.945 |
| RRIRFRPPRLPRPRPRPSTYPRP | -0.802 |
| RRIRFRPPRLPRPRPRPSVYPRP | -0.158 |
| RRIRFRPPRLPRPRPRPSWCPRP | -0.0879 |
| RRIRFRPPRLPRPRPRPSYHPRP | -0.485 |
| RRIRFRPPRLPRPRPRPTAVPRP | 0.117 |
| RRIRFRPPRLPRPRPRPTDAPRP | 0.00734 |
| RRIRFRPPRLPRPRPRPTFFPRP | -0.169 |
| RRIRFRPPRLPRPRPRPTGHPRP | -0.287 |
| RRIRFRPPRLPRPRPRPTGQPRP | 0.0488 |
| RRIRFRPPRLPRPRPRPTGSPRP | -0.103 |
| RRIRFRPPRLPRPRPRPTHKPRP | -0.0458 |
| RRIRFRPPRLPRPRPRPTHLPRP | 0.222 |
| RRIRFRPPRLPRPRPRPTHWPRP | 0.44 |
| RRIRFRPPRLPRPRPRPTIFPRP | -0.274 |

| Sequence | shrunken log2 fold change |
| --- | --- |
| RRIRFRPPRLPRPRPRPTILPRP | -0.453 |
| RRIRFRPPRLPRPRPRPTIPPRP | -0.562 |
| RRIRFRPPRLPRPRPRPTIQPRP | -0.266 |
| RRIRFRPPRLPRPRPRPTISPRP | -0.611 |
| RRIRFRPPRLPRPRPRPTKAPRP | 0.0916 |
| RRIRFRPPRLPRPRPRPTKEPRP | -0.0335 |
| RRIRFRPPRLPRPRPRPTNAPRP | -0.143 |
| RRIRFRPPRLPRPRPRPTNYPRP | -0.587 |
| RRIRFRPPRLPRPRPRPTPDPRP | 0.485 |
| RRIRFRPPRLPRPRPRPTPFPRP | 0.266 |
| RRIRFRPPRLPRPRPRPTPHPRP | 0.333 |
| RRIRFRPPRLPRPRPRPTPSPRP | 0.636 |
| RRIRFRPPRLPRPRPRPTPYPRP | 0.0647 |
| RRIRFRPPRLPRPRPRPTQAPRP | 0.442 |
| RRIRFRPPRLPRPRPRPTQWPRP | 0.267 |
| RRIRFRPPRLPRPRPRPTVLPRP | -0.0624 |
| RRIRFRPPRLPRPRPRPTVTPRP | 0.052 |
| RRIRFRPPRLPRPRPRPTWAPRP | 0.0327 |
| RRIRFRPPRLPRPRPRPTWVPRP | 0.156 |
| RRIRFRPPRLPRPRPRPTYFPRP | -0.175 |
| RRIRFRPPRLPRPRPRPTYNPRP | -0.767 |
| RRIRFRPPRLPRPRPRPVAAPRP | 1.41 |
| RRIRFRPPRLPRPRPRPVAPPRP | 0.243 |
| RRIRFRPPRLPRPRPRPVARPRP | 0.0942 |
| RRIRFRPPRLPRPRPRPVCPPRP | 0.311 |

| Sequence | shrunken log2 fold change |
| --- | --- |
| RRIRFRPPRLPRPRPRPVCVPRP | -0.168 |
| RRIRFRPPRLPRPRPRPVCWPRP | 0.399 |
| RRIRFRPPRLPRPRPRPVDCPRP | -0.0595 |
| RRIRFRPPRLPRPRPRPVDSPRP | 0.0218 |
| RRIRFRPPRLPRPRPRPVEIPRP | -0.391 |
| RRIRFRPPRLPRPRPRPVFGPRP | -0.17 |
| RRIRFRPPRLPRPRPRPVHVPRP | -0.191 |
| RRIRFRPPRLPRPRPRPVIAPRP | -0.186 |
| RRIRFRPPRLPRPRPRPVIMPRP | -0.297 |
| RRIRFRPPRLPRPRPRPVPGPRP | 0.1 |
| RRIRFRPPRLPRPRPRPVPTPRP | 0.113 |
| RRIRFRPPRLPRPRPRPVQYPRP | -0.445 |
| RRIRFRPPRLPRPRPRPVRAPRP | 0.495 |
| RRIRFRPPRLPRPRPRPVRLPRP | 0.0919 |
| RRIRFRPPRLPRPRPRPVRYPRP | -0.0423 |
| RRIRFRPPRLPRPRPRPVSRPRP | -0.145 |
| RRIRFRPPRLPRPRPRPVWHPRP | -0.0142 |
| RRIRFRPPRLPRPRPRPVYDPRP | -0.977 |
| RRIRFRPPRLPRPRPRPWAIPRP | 0.268 |
| RRIRFRPPRLPRPRPRPWCDPRP | -0.329 |
| RRIRFRPPRLPRPRPRPWCGPRP | -0.142 |
| RRIRFRPPRLPRPRPRPWCIPRP | -0.369 |
| RRIRFRPPRLPRPRPRPWDAPRP | -0.12 |
| RRIRFRPPRLPRPRPRPWDHPRP | -0.483 |
| RRIRFRPPRLPRPRPRPWDKPRP | -1.33 |

| Sequence | shrunken log2 fold change |
| --- | --- |
| RRIRFRPPRLPRPRPRPWFEPRP | -0.0653 |
| RRIRFRPPRLPRPRPRPWFKPRP | -0.537 |
| RRIRFRPPRLPRPRPRPWFPPRP | -0.0773 |
| RRIRFRPPRLPRPRPRPWGEPRP | 0.0156 |
| RRIRFRPPRLPRPRPRPWGMPRP | -0.171 |
| RRIRFRPPRLPRPRPRPWHVPRP | -0.0433 |
| RRIRFRPPRLPRPRPRPWIPPRP | -0.432 |
| RRIRFRPPRLPRPRPRPWIVPRP | -0.242 |
| RRIRFRPPRLPRPRPRPWKAPRP | 0.0062 |
| RRIRFRPPRLPRPRPRPWLQPRP | -0.163 |
| RRIRFRPPRLPRPRPRPWLTPRP | -0.0554 |
| RRIRFRPPRLPRPRPRPWNTPRP | -1.19 |
| RRIRFRPPRLPRPRPRPWQWPRP | 0.00967 |
| RRIRFRPPRLPRPRPRPWRCPRP | 0.174 |
| RRIRFRPPRLPRPRPRPWTFPRP | -0.797 |
| RRIRFRPPRLPRPRPRPWTNPRP | -0.289 |
| RRIRFRPPRLPRPRPRPWTWPRP | 0.0306 |
| RRIRFRPPRLPRPRPRPWVLPRP | -0.0735 |
| RRIRFRPPRLPRPRPRPWWQPRP | -0.0583 |
| RRIRFRPPRLPRPRPRPWWWPRP | 0.0474 |
| RRIRFRPPRLPRPRPRPWYSPRP | -0.0415 |
| RRIRFRPPRLPRPRPRPYAFPRP | -0.193 |
| RRIRFRPPRLPRPRPRPYAQPRP | -0.533 |
| RRIRFRPPRLPRPRPRPYAWPRP | -0.134 |
| RRIRFRPPRLPRPRPRPYCMPRP | -0.929 |
